Patent publication US20230407327A1, “INDUCIBLE PROMOTER FOR VIRAL VECTOR PRODUCTION” (ASKLEPIOS BIOPHARMACEUTICAL, INC., priority 2020, published 2023)

How the values were obtained:
[1] = test system: HEK293-T cells; assay: Luciferase expression from hypoxia-inducible promoters in transiently transfected HEK293-T cells; assay type: cell-based, human; details: for luciferase activity in normoxia: normoxic conditions, FIG. 4
Description: HEK293-T are seeded at a density of 20%. Once they reached a confluence between 60 and 80%, the media is changed with DMEM (#21885-025—Thermo Scientific) supplemented with 10% FBS (Gibco, 26140). After 3 hours, the cells are transfected by a transfection mix. The transfection mix is prepared by adding DNA (2 μg per 6 well plate) and PEI 25 kDA (#23966-1—Polyscience) in a ratio of 1:3 in sterile DPBS (#14190169—ThermoFisher Scientific). After mixing, the transfection mix is incubated at room temperature for 30 minutes and then added directly to the cells. After 16 to 18 h post transfection, the media is changed to DMEM+2% FBS. The transfected DNA is one of the vectors where the promoter construct (Synp-RTV-016, Synp-HYBT and Synp-HV3C) or a control promoter (CMV-IE) are used to drive luciferase expression and P-galactosidase containing pcDNA6 plasmid. The β-galactosidase containing plasmid is used as internal control for transfection efficiency (Thermofisher, V22020).
After transfection the cells are incubated for 24 hrs in normoxic conditions (20% oxygen). Induction of the promoters is assessed by using luciferase activity after 24 hrs in normoxia or hypoxia (5% oxygen, 10% carbon dioxide and 85% nitrogen). Hypoxia is achieved by gas displacement in a sealed hypoxia chamber.
(§1) Luciferase activity is measured using LARII (Dual Luciferase Reporter 1000 assay system, Promega, E1980).
Media is removed from the cells at the respective time point (0, 3, 5, 24 hrs after induction). The cells are washed once in 300 μl of DPBS. Cells are lysed by adding 100 μl of passive lysis buffer to the cells and incubation with rocking for 15 minutes. The cell debris is pelleted by centrifugation of the plate at max speed in a benchtop centrifuge for 1 min. 10 μl of supernatant is pipetted into white 96-well plate and luminescence measured by addition of 50 μl of LARII substrate.
β-galactosidase activity is measured as per manufacturer's instructions (Mammalian PGalactosidase Assay Kit, 75707/75710, Thermo Scientific) using 25 µl of lysate. 25 μl of lysate is transferred into a microplate well and mixed with 25 μl of β-galactosidase Assay Reagent, equilibrated to room temperature. The mixture is incubated at 37° C. for 30 min and absorbance measured at 405 nm.
(§2) Luciferase readouts are normalised to β-galactosidase to produce normalised relative luminometer units (RLUs).

[2] = test system: HEK293-F cells; assay: Luciferase expression from hypoxia-inducible promoters in transiently transfected HEK293-F cells; assay type: cell-based, human; details: cells placed in hypoxia at 0 hours; FIG. 3
Description: 40 ml of cells are grown in a 250 ml vented Erlenmeyer flask (Sigma-Aldrich CLS431144) at 37° C., 20% O2, 8% CO2 with agitation at 100 rpm. Cells are seeded as described in the manufacturer's instructions (300,000 cells/ml). HEK293-F are obtained from Thermofisher, R79007.
One day before transfection, the cells are counted using a haemocytometer and split to 500,000 cells/ml.
On the day of transfection, the cells are seeded to 1,000,000 cells/ml in 500 µl of appropriate medium (Freestyle 293 expression medium, 12338002) in a 24 well plate. […] of DNA per well is then added to 10 μl of OptiMem medium (Thermofisher; 11058021) and incubated for 5 minutes at room temperature.
Concurrently, 0.625 μl of Max reagent (Thermofisher, 16447100) is made up to […] by addition of OptiMem and incubated for 5 minutes at room temperature. After this incubation, both mixes are added to the same tube and incubated at room temperature for 25-30 minutes. The DNA/Max reagent mix (20 μl/well) is then added directly to the cells and the cells incubated at 37° C., 8% CO2 with agitation at 100 rpm. […]
After transfection the cells are incubated for 24 hrs in normoxia conditions (20% oxygen) before being switched to a gas mix of 5% oxygen, 10% carbon dioxide and 85% nitrogen (hypoxia). […] Induction of the promoters is assessed by using luciferase activity after 3, 5 and 24 hrs in hypoxia.
as §1
Media is removed from the cells at the respective time point (0, 3, 5, 24 hrs after induction). […] 10 μl of supernatant is pipetted into white 96-well plate and luminescence measured by addition of 50 μl of LARII substrate.
β-galactosidase activity is measured as per manufacturer's instructions (Mammalian PGalactosidase Assay Kit, 75707/75710, Thermo Scientific) using 25 µl of lysate. […] The mixture is incubated at 37° C. for 30 min and absorbance measured at 405 nm.
as §2

[3] = test system: Huh7 (liver); assay: Luciferase expression from forskolin-inducible promoters in Huh7 cells; assay type: cell-based, human; details: for luciferase activity after induction, promoter expressed from an AAV vector: 20 μM forskolin or 7.2 μM NKH477; for luciferase activity after induction, promoter expressed from an AAV vector / luciferase activity without induction, promoter expressed from an AAV vector: FIG. 8; for luciferase activity after induction: 20 μM forskolin; for luciferase activity after induction / luciferase activity without induction: FIG. 6; for luciferase activity without induction, promoter expressed from an AAV vector: AAV vector containing ITRs
Description: Luciferase activity was measured without induction and after induction with 20 μM forskolin or 7.2 μM NKH477.

[4] = test system: C2C12 (muscle) cells; assay: Luciferase expression from forskolin-inducible promoter in C2C12 cells; assay type: cell-based, mouse; details: FIG. 7
Text: CMV-IE expression was not analyzed under induced conditions, and thus no result is shown in the graph.

Molecule | luciferase expression / inducibility after 24 hours in hypoxia versus normoxia [1] | luciferase activity in normoxia [1] | luciferase activity over time in hypoxia [2] | luciferase activity after induction, promoter expressed from an AAV vector [3] | luciferase activity after induction [3] | luciferase activity without induction, promoter expressed from an AAV vector [3] | luciferase activity without induction [3] | luciferase activity after induction ([4]; 20 μM forskolin) | luciferase activity without induction [4]
Synp-HV3C: synthetic hypoxia-inducible promoter, SEQ ID NO: 3; 4 HRE3 and CMV minimal promoter (nucleic acid) DNA: ACCTTGAGTACGTGCGTCTCTGCACGTATGGCGATTAAGACCTTGAGTACGTGCGTCTCTGCACGTATGGCGATTAAGACCTTGAGTACGTGCGTCTCTGCACGTATGGCGATTAAGACCTTGAGTACGTGCGTCTCTGCACGTATGGCGATTAATCCATATGCAGGTCTATATAAGCAGAGCTCGTTTAGTGAACCGTCAGATCGCCTAGATACGCCATCCACGCTGTTTTGACCTCCATAGAAGATCGCCACC | highest | almost no luciferase activity | increase in luciferase activity with time |  |  |  |  |  | 
Synp-RTV-016: synthetic hypoxia-inducible promoter, SEQ ID NO: 1; 6 HRE2 and CMV minimal promoter (nucleic acid) DNA: CTGCACGTAGATGATGCGTAGCTAGTAGTCTGCACGTAGATGATGCGTAGCTAGTAGTCTGCACGTAGATGATGCGTAGCTAGTAGTCTGCACGTAGATGATGCGTAGCTAGTAGTCTGCACGTAGATGATGCGTAGCTAGTAGTCTGCACGTAGTAGTCGTATGCTGATGCGCAGTTAGCGTAGCTGAGGTACCGTCGACGATATCGGATCCAGGTCTATATAAGCAGAGCTCGTTTAGTGAACCGTCAGATCGCCTAGATACGCCATCCACGCTGTTTTGACCTCCATAGAAGATCGCCACC | lowest | almost no luciferase activity | increase in luciferase activity with time |  |  |  |  |  | 
Synp-HYBT: synthetic hypoxia-inducible promoter, SEQ ID NO: 2; 4 HRE3 and a YB-TATA minimal promoter (nucleic acid) DNA: ACCTTGAGTACGTGCGTCTCTGCACGTATGGCGATTAAGACCTTGAGTACGTGCGTCTCTGCACGTATGGCGATTAAGACCTTGAGTACGTGCGTCTCTGCACGTATGGCGATTAAGACCTTGAGTACGTGCGTCTCTGCACGTATGGCGATTAATCCATATGCTCTAGAGGGTATATAATGGGGGCCA | induced to a varying level | almost no luciferase activity | increase in luciferase activity with time |  |  |  |  |  | 
Synp-RTV-019: synthetic forskolin-inducible promoter, SEQ ID NO: 5; 3×ATF6, 4× AP1 and 3× HIF TFBS and a CMV-MP (nucleic acid) DNA: TGACGTGCTGATGATGCGTAGCTAGTAGTTGACGTGCTGATGATGCGTAGCTAGTAGTTGACGTGCTGATGATGCGTAGCTAGTAGTTGAGTCAGATGATGCGTAGCTAGTAGTTGAGTCAGATGATGCGTAGCTAGTAGTTGAGTCAGATGATGCGTAGCTAGTAGTTGAGTCAGATGATGCGTAGCTAGTAGTCTGCACGTAGATGATGCGTAGCTAGTAGTCTGCACGTAGATGATGCGTAGCTAGTAGTCTGCACGTAGATGATGCGTAGCTAGTAGTGCAGTTAGCGTAGCTGAGGTACCGTCGACGATATCGGATCCAGGTCTATATAAGCAGAGCTCGTTTAGTGAACCGTCAGATCGCCTAGATACGCCATCCACGCTGTTTTGACCTCCATAGAAGATCGCCACC |  |  |  | high activity | high activity | low background activity | low background activity | high activity | low background activity
Synp-RTV-017: synthetic forskolin-inducible promoter, SEQ ID NO: 4; 8× AP1 TFBS and a CMV-MP (nucleic acid) DNA: TGAGTCAGATGATGCGTAGCTAGTAGTTGAGTCAGATGATGCGTAGCTAGTAGTTGAGTCAGATGATGCGTAGCTAGTAGTTGAGTCAGATGATGCGTAGCTAGTAGTTGAGTCAGATGATGCGTAGCTAGTAGTTGAGTCAGATGATGCGTAGCTAGTAGTTGAGTCAGATGATGCGTAGCTAGTAGTTGAGTCAGTAGTCGTATGCTGATGCGCAGTTAGCGTAGCTGAGGTACCGTCGACGATATCGGATCCAGGTCTATATAAGCAGAGCTCGTTTAGTGAACCGTCAGATCGCCTAGATACGCCATCCACGCTGTTTTGACCTCCATAGAAGATCGCCACC |  |  |  | high activity | high activity | low background activity | low background activity |  | 
Synp-FORCYB1: synthetic forskolin-inducible promoter, SEQ ID NO: 6; 5× cAMPRE and 4× AP1 TFBS and YB-TATA-MP (nucleic acid) DNA: TGACGTCACGATTACCATTGACGTCACGATTACCATTGACGTCACGATTACCATTGACGTCACGATTACCATTGACGTCAGCGATTAAGATGACTCAGCGATTAAGATGACTCAGCGATTAAGATGACTCAGCGATTAAGATGACTCAGCGATTAATCCATATGCTCTAGAGGGTATATAATGGGGGCCACTAGTCTACTACCAGAAAGCTTGGTACCGAGCTCGGATCCAGCCACC |  |  |  | high activity |  | low background activity |  |  | 
